Assay results as given in paper PMC6224480, “Insights into Kinesin-1 Activation from the Crystal Structure of KLC2 Bound to JIP3” (Structure(London, England:1993), 2018).
*: point of attachment. FITC = O=C1OC2(c3ccc(O)cc3Oc3cc(O)ccc32)c2ccc(NC(=S)*)cc21

Assays:
Test in all cases: ITC; FITC-CSTN-WD2 peptide as titrant (380 uM) into wild-type or mutant KLC2^TPR-myc (44-50 uM) in the cell; 25 C; 0.1 M NaCl, 25 mM HEPES, 1 mM TCEP, pH 7.5; 2-3 experiments globally fitted with the model A + B -> AB; apparent stoichiometry Napp
[1] = molecular target: KLC2^TPR-myc (kinesin light chain 2 TPR domain, wild type, C-terminal myc tag) (mouse) (UniProt O88448)
[2] = molecular target: KLC2^TPR-myc Tyr^208Ala mutant (mouse) (UniProt O88448)
[3] = molecular target: KLC2^TPR-myc Thr^200Asp mutant (mouse) (UniProt O88448)

## {FITC}-TRQLEWDDSTL-OH [FITC-labeled CSTN(WD2) peptide (FITC-…-COOH)]
[1]
  Ka: 820000 M⁻¹
  stoichiometry N: 0.67
[2]
  Ka: 541000 M⁻¹
  stoichiometry N: 0.67
[3]
  Ka: 845000 M⁻¹
  stoichiometry N: 0.71
